Key:
[1] = target: T1, human CD40 on cells (CD40-transfected HEK293 cells, Ramos cells, human B cells, human platelets) (human, UniProt P25942 21-277); assay: cell-based or functional assay
[2] = target: T1, human CD40 on cells (CD40-transfected …); assay: cell-based or functional assay; remark: listed apart in the source
[3] = target: T2, human CD40-Fc protein (human, UniProt P25942 21-193); assay: ForteBio Octet, human CD40-Fc, +/- human serum
T2 construct: also called recombinant CD40 protein; not shown: Fc part
T2 sequence (P25942 21-193 limits assumed): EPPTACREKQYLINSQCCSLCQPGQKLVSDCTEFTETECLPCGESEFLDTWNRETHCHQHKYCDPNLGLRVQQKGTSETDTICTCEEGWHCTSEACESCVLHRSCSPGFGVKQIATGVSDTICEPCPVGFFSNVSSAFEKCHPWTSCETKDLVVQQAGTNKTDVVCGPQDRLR
Method: Due to antibody and CD40-Fc bivalency avidity effects prevent Kds below 100 pM from being determined accurately. In addition, the binding to CD40-Fc was analyzed in the absence and presence of 50% human serum and no significant effect of serum on binding was observed (data not shown)

[4] = target: T1, human CD40 on cells (CD40-transfected …); assay: flow cytometry, human CD40-transfected HEK293 cells
Method: (§1) The specific binding of humanized antibodies to cellular CD40 was analyzed by flow cytometry using human CD40-transfected HEK293 cells. Concentration-dependent binding of Antibody A, Antibody B, and Antibody C was observed. […] No binding was detected on CD40 negative cells such as non-transfected HEK293 cells or the T cell line HSB-2 thus confirming selective binding to CD40 (data not shown).

[5] = target: T1, human CD40 on cells (CD40-transfected …); assay: cell binding, flow cytometry (cell type not given)
[6] = target: T1, human CD40 on cells (CD40-transfected …); assay: flow cytometry (mean fluorescence intensity), FITC-labeled antibody on human platelets
[7] = target: T1, human CD40 on cells (CD40-transfected …); assay: flow cytometry (MFI) on CD40-transfected HEK cells
Method: as §1

[8] = target: T3, cynomolgus monkey CD40 on cells (B cells, platelets) (cynomolgus monkey, UniProt G7PG38 21-278); assay: EC50 ratio human/cyno; ratio > 1 means increased binding to Cyno compared to Human
T3 construct: whole, on cells

[9] = target: T1, human CD40 on cells (CD40-transfected …); assay: flow cytometry (MFI) on human CD40-transfected HEK-293 cells
Method: as §1

[10] = target: T1, human CD40 on cells (CD40-transfected …); assay: flow cytometry, directly labeled antibody, B cells in human whole blood (n = 6); range in brackets
[11] = target: T1, human CD40 on cells (CD40-transfected …); assay: flow cytometry, directly labeled antibody, platelets in human whole blood (n = 5); range in brackets
[12] = target: T3, cynomolgus monkey CD40 on cells (B …); assay: flow cytometry, directly labeled antibody, B cells in cynomolgus whole blood (n = 5); range in brackets
[13] = target: T3, cynomolgus monkey CD40 on cells (B …); assay: flow cytometry, directly labeled antibody, platelets in cynomolgus whole blood (n = 5); range in brackets

T1 sequence (P25942 21-277): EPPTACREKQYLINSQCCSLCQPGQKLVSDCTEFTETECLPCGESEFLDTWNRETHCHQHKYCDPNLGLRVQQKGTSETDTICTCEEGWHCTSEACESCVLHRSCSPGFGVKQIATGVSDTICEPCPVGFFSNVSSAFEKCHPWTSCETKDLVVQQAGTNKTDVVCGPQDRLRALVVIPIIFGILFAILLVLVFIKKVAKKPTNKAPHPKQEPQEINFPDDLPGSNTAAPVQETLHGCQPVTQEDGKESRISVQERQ

Row | Binder | B cell proliferation assay, average IC50 [1] [nM] | B cell proliferation:Agonism (SI*) [2] | Kd [3] [nM] | EC50 [4] [nM] | EC50 [5] [nM] | binding result [6] | EC50 (read off the curve) [7] [nM] | Species cross-react.:Hu/Cyno Binding (EC50 ratios) [8] [ratio] | EC50 [9] [nM] | EC50 [10] [nM] | EC50 [11] [nM] | EC50 [12] [nM] | EC50 [13] [nM]
1 | 4D11 (Kirin/Astellas) anti-CD40 antibody (antibody, V domains shown) VH: QLQLQESGPGLLKPSETLSLTCTVSGGSISSPGYYGGWIRQPPGKGLEWIGSIYKSGSTYHNPSLKSRVTISVDTSKNQFSLKLSSVTAADTAVYYCTRPVVRYFGWFDPWGQGTLVTVSS VL: AIQLTQSPSSLSASVGDRVTITCRASQGISSALAWYQQKPGKAPKLLIYDASNLESGVPSRFSGSGSGTDFTLTISSLQPEDFATYYCQQFNSYPTFGQGTKVEIK | ~0.02 | < 2 SI (Stimulation Index) | < 0.1 | ~1 | 0.9 |  |  |  |  |  |  |  | 
2 | Antibody A (IgG1KO) (antibody, V domains shown, also called 20E2-12) VH: EVQLVESGGGLVKPGGSLRLSCAASGFTFSDYGMHWVRQAPGKGLEWVAYISSGNRIIYYADTVKGRFTISRDNAKNSLYLQMNSLRAEDTALYYCARQDGYRYAMDYWAQGTLVTVSS VL: DIVMTQSPDSLAVSLGERATMSCKSSQSLLNSGNQKNYLTWHQQKPGQPPKLLIYWTSTRESGVPDRFSGSGSGTDFTLTISSLQAEDVAVYYCQNDYTYPLTFGGGTKVEIKR |  | < 2 SI (Stimulation Index) | < 0.1 | ~1 | 1.2 |  | ~1 | 3 |  |  |  |  | 
3 | Antibody B (IgG1KO) (antibody, V domains shown) VH: EVQLVESGGGLVKPGGSLRLSCAASGFTFSDYGMHWVRQAPGKGLEWVAYISSGNRIIYYADTVKGRFTISRDNAKNSLYLQMNSLRAEDTAVYYCARQDGYRYAMDYWGQGTLVTVSS VL: DIVMTQSPDSLAVSLGEKVTINCKSSQSLLNSGNQKNYLTWHQQKPGQPPKLLIYWTSTRESGVPDRFSGSGSGTDFTLTISSLQAEDVAVYYCQNDYTYPLTFGGGTKVEIKR |  | < 2 SI (Stimulation Index) | < 0.1 | ~1 | 1.5 |  | ~2 | 2 | 1 | 1.8 | 4.6 | 2.1 | 3.9

Second part, the binder after the results:

Row | B cell proliferation assay, average IC50 [1] [nM] | B cell proliferation:Agonism (SI*) [2] | Kd [3] [nM] | EC50 [4] [nM] | EC50 [5] [nM] | binding result [6] | EC50 (read off the curve) [7] [nM] | Species cross-react.:Hu/Cyno Binding (EC50 ratios) [8] [ratio] | EC50 [9] [nM] | EC50 [10] [nM] | EC50 [11] [nM] | EC50 [12] [nM] | EC50 [13] [nM] | Binder
4 |  |  |  |  |  | binds |  |  |  |  |  |  |  | 2H11 (murine anti-human CD40 antibody) (antibody, V domains shown, Mouse monoclonal antibody) VH: EVQLQQSGAELVRPGASVKLSCTASGFNIKDYYVHWVKQRPEKGLEWIGRIDPEDGDSKYAPKFQGKATMTADTSSNTAYLHLSSLTSEDTAVYYCTTSYYVGTYGYWGQGTTLTVSS VL: QIVLTQSPAIMSASPGEKVTITCSASSSVSYMLWFQQKPGTSPKLWIYSTSNLASGVPARFGGSGSGTSYSLTISRMEAEDAATYYCQQRTFYPYTFGGGTKLEIK
5 |  | < 2 SI (Stimulation Index) | < 0.1 | ~1 | 1.7 |  | ~0.8 | 1 |  |  |  |  |  | Antibody C (IgG1KO) (antibody, V domains shown, also called 2H11-159-94) VH: QVQLVQSGAEVKKPGASVKVSCTASGFNIKDYYVHWVKQAPGQGLEWMGRIDPEDGDSKYAPKFQGKATMTADTSTSTVYMELSSLRSEDTAVYYCTTSYYVGTYGYWGQGTLVTVSS VL: DIQMTQSPSSLSASVGDRVTITCSASSSVSYMLWFQQKPGKAPKLLIYSTSNLASGVPSRFSGSGSGTDFTLTISSLQPEDFATYYCQQRTFYPYTFGGGTKVEIKR

Source: patent publication US20190169301A1 (Boehringer Ingelheim, published 2019)
